# Reference: PMC4382182, “Characterization of Phospho-(Tyrosine)-Mimetic Calmodulin Mutants” (PLoS ONE, 2015)
# Target: endothelial nitric oxide synthase (eNOS) (bovine recombinant baculovirus-expressed in Sf9 cells) (bovine) (UniProt P29473)
# Sequence (P29473 whole entry): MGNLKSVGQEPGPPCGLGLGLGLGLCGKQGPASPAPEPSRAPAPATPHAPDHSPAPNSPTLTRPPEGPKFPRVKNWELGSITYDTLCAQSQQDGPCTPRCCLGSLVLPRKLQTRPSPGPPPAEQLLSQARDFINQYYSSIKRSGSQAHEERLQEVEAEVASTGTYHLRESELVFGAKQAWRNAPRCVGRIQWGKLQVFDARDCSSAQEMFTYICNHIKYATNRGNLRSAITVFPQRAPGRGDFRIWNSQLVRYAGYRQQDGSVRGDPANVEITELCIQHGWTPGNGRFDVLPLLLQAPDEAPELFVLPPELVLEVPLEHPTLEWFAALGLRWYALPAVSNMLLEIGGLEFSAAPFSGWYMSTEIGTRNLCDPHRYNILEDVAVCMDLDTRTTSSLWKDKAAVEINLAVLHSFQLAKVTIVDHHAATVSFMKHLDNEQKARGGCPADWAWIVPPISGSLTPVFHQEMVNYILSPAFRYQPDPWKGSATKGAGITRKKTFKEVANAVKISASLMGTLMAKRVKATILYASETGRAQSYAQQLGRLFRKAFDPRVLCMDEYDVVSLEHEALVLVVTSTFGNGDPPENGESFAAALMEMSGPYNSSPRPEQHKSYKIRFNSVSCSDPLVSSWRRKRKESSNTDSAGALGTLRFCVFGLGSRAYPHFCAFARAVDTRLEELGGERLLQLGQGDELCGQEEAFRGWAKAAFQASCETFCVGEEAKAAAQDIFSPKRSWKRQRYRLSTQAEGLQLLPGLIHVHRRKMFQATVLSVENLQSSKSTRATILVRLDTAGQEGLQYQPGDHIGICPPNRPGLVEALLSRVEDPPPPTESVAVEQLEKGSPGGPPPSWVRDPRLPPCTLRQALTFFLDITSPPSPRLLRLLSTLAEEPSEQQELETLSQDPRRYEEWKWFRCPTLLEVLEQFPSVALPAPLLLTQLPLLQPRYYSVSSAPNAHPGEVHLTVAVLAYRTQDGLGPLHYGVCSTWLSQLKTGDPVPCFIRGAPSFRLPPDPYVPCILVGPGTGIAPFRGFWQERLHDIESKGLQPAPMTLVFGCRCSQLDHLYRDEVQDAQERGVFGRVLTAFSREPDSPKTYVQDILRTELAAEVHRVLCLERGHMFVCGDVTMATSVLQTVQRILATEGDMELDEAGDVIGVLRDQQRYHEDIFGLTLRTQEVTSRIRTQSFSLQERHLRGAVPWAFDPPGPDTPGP
substance,measurement,value
purified bovine brain phospho-(Y)-CaM (phosphorylated by c-Src and free of non-phosphorylated CaM) (from UniProt P62157 1-149) (natural protein),"increase of eNOS activity by phospho-(Y)-CaM over that by non-phosphorylated CaM, at increasing concentrations of CaM",30%
